How the values were obtained:
[1] = molecular target: Human Tau K18 2×VY (I278V/N279Y) (human) (UniProt P10636); assay: cell-based or functional assay
[2] = molecular target: Human Tau K18 2×IN (V308I/Y309N) (human) (UniProt P10636); assay: cell-based or functional assay
[3] = molecular target: Human Tau40 (residues 1-441) with a C-terminal His-tag (human, UniProt P10636 1-757); assay: cell-based or functional assay
[4] = molecular target: the molecule itself; assay: MicroED structure of fibril nanocrystals; self-association
Description: (§1) Nanocrystals of […] (SEQ ID NO: 12) synthetic peptide (purchased from Genscript) were prepared from 30 mg/ml stocks dissolved in water by the addition of 45 mM arachidonic acid to concentrated peptide. Subsequently crystals were grown in batch at 37° C. by the addition of 10 μl of precipitant (32% PEG10K in 100 mM phosphate citrate, pH 4.2) to 5 μl of protein. After 18 hours nanocrystals were resuspended by pipetting, spun down in an epitube and the resulting crystalline pellet was washed three times with water. Nanocrystals of VQIINK (SEQ ID NO: 11) peptide (purchased from Genscript) were grown by vapor diffusion from peptide at 15 mg/ml as a 1:2 drop ratio (protein:reservoir) from 0.29 M LiNO3, 24% (w/v) PEG 3350 at 18° C. and similarly harvested for data collection.
(§2) MicroED data were collected by spotting 2-3 μl of crystals onto TEM grids with carbon film support and plunge frozen in liquid ethane using a Vitrobot Mark IV (FEI). Diffraction images were collected on an FEI Tecnai F20 TEM at 200 kV as a continuous rotation tilt series at a rate of 0.2° per second with 2 second exposures per image. Diffraction data from several crystals were indexed, merged and scaled with XDS and XSCALE.²⁷ Molecular replacement was performed with Phaser²⁸ using a polyalanine search model composed of an ideal β-strand. The structure of VQIINK (SEQ ID NO: 11) was solved using a truncated version of […] […]

[5] = molecular target: the molecule itself; assay: MicroED structure of nanocrystals; self-association
Description: as §1, §2

Human Tau40 (residues 1-441) with a C-terminal His-tag, sequence (P10636 other isoform, or with tags, fused parts or gaps): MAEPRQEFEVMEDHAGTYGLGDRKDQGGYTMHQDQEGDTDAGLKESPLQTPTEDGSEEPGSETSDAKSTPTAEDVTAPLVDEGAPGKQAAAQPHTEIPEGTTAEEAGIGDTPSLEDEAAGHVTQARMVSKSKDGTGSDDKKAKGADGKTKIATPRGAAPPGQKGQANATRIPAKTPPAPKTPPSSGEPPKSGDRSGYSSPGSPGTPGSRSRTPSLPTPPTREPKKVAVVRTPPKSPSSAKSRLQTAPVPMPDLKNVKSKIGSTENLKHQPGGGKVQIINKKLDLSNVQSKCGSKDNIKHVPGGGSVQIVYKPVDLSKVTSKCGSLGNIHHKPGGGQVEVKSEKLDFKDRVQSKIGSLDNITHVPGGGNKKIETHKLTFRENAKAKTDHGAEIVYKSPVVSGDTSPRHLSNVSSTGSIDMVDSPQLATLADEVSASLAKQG

Molecule: Human Tau K18 2×VY (I278V/N279Y) (from UniProt P10636 561-689)
- ThT fluorescence, time to half maximum of fibril formation (50 µM, heparin, shaking, 37° C.) [1]: 220 min

Molecule: Human Tau K18 2×IN (V308I/Y309N) (from UniProt P10636 561-689)
- ThT fluorescence, time to half maximum of fibril formation (50 µM, heparin, shaking, 37° C.) [2]: 70 min

Molecule: DVWMINKKRK [W-MINK Phase 2 inhibitor peptide]
- IC50 of inhibition of seeding by pre-formed Tau40 fibers in biosensor cells [3]: 9 µM

Molecule: DVQMINKKRK [MINK inhibitor peptide]
- IC50 of inhibition of seeding by pre-formed Tau40 fibers in biosensor cells [3]: 22 µM

Molecule: DVQWINKKRK [WINK inhibitor peptide]
- IC50 of inhibition of seeding by pre-formed Tau40 fibers in biosensor cells [3]: 25 µM

B1: KVQIINKKLD synthetic peptide (ten residue Tau segment) (peptide)
peptide: KVQIINKKLD
notes: The peptide corresponds to Tau40 residues 274-283; also called ten residue VQIINK segment
- binding result [4]: binds

Molecule: VQIINK [VQIINK peptide (six residue Tau segment)]
- binding result [5]: binds

Source: patent US20200017563A1 (University of California, published 2020)
